Results reported in patent US20250197467A1 (BRIGHT PEAK THERAPEUTICS, published 2025).

T1: IL-18 receptor (IL-18Rαβ) on cells (UniProt Q13478 19-541; O95256 20-599, limits assumed)
T1 sequence (looked up) 1: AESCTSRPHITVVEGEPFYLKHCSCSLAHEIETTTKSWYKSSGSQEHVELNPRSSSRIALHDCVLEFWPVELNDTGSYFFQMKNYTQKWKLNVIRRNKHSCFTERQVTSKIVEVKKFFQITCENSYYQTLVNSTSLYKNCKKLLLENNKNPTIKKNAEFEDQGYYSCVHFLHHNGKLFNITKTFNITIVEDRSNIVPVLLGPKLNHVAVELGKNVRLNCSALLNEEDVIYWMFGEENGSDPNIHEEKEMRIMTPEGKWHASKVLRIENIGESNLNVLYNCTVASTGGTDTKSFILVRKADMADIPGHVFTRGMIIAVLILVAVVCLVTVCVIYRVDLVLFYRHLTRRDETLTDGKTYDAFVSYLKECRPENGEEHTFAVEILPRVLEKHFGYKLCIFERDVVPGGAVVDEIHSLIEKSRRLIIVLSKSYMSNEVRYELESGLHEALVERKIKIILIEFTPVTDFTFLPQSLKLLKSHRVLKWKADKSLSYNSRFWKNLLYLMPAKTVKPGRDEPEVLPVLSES
T1 sequence (looked up) 2: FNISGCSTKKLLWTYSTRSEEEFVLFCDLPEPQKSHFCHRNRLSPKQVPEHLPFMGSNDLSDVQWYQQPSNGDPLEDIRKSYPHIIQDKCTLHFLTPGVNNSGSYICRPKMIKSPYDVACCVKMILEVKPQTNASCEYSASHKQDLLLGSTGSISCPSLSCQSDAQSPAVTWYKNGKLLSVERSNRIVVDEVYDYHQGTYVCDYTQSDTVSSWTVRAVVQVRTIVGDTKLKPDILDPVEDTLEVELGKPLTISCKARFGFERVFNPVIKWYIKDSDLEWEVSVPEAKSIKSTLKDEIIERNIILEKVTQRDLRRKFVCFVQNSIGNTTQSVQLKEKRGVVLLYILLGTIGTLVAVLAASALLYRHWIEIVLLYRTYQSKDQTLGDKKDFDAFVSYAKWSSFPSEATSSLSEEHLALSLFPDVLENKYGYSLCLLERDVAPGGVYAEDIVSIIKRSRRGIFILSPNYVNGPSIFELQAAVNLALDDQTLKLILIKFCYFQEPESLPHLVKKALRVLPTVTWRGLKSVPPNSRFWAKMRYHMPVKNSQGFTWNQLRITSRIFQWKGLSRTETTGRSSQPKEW


Key:
[1] = target: T1, IL-18 receptor (IL-18Rαβ) on cells; test: cell-based or functional assay
[2] = target: T1, IL-18 receptor (IL-18Rαβ) on cells; test: cell-based or functional assay; remark: listed apart in the source

EC50 (IFNγ stimulation, NK92) [1] [pM] | HEK-Blue IL-18R reporter EC50 [2] [pM] | Binder
6 | 0.203 | SEQ ID NO 60 (ligand) YFGKLKSKLSVIRNLNDQVLFIDQGNRPLFEDMTDSDQRDNAPRTIFIISMYADSQPRGMAVTISVKCEKISTLSCENKIISFKEMNPPDNIKDTKSDIIFFQRSVPGHDNKMQFESSSYEGYFLACEKERDLFKLILKKEDELGDRSIMFTVQNED
187 | 6.6 | C149 (ligand) YFGKLESKLSIIRNLNDQVLFIDQGNRPLFADMTDSDARDNAPRTIFIISMYADSQPRGMAVTISVKCEKISTLSAENKIISFKEMNPPDNIKDTKSDIIFFQRSVPGHDNKMQFESSSYEGYFLAAEKERDLFKLILKKEDELGDRSIMFTVQNED
15 | 0.7 | C150 (ligand) YFGKLESKLSIIRNLNDQVLFIDQGNRPLFEDMADSDARDNAPRTIFIISMYADSQPRGMAVTISVKCEKISTLSAENKIISFKEMNPPDNIKDTKSDIIFFQRSVPGHDNKMQFESSSYEGYFLAAEKERDLFKLILKKEDELGDRSIMFTVQNED
61 | 13.1 | C151 (ligand) YFGKLESKLSIIRNLNDQVLFIDQGNRPLFEDMTASDARDNAPRTIFIISMYADSQPRGMAVTISVKCEKISTLSAENKIISFKEMNPPDNIKDTKSDIIFFQRSVPGHDNKMQFESSSYEGYFLAAEKERDLFKLILKKEDELGDRSIMFTVQNED
12 | 0.17 | C144 (ligand) YFGKLESKLSIIRNLNDQVLFIDQGNRPLFEDMTDSDARDNAPRTIFIISMYADSQPRGMAVAISVKCEKISTLSAENKIISFKEMNPPDNIKDTKSDIIFFQRSVPGHDNKMQFESSSYEGYFLAAEKERDLFKLILKKEDELGDRSIMFTVQNED
73 | 15.6 | C158 (ligand) YFGKLESKLSIIRNLNDQVLFIDQGNRPLFEDMTDSDARDNAPRTIFIISMYADSQPRGMAVTISVKCEKISTLSAENKIISFKEMNPPDNIKDTKSDIIFFQRSVPAHDNKMQFESSSYEGYFLAAEKERDLFKLILKKEDELGDRSIMFTVQNED

The next lines start with the binder.

Binder | EC50 (IFNγ stimulation, NK92) [1] [pM] | HEK-Blue IL-18R reporter EC50 [2] [pM]
C155 (ligand) YFGKLESKLSIIRNLNDQVLFIDQGNRPLFEDMTDSDARANAPRTIFIISMYADSQPRGMAVTISVKCEKISTLSAENKIISFKEMNPPDNIKDTKSDIIFFQRSVPGHDNKMQFESSSYEGYFLAAEKERDLFKLILKKEDELGDRSIMFTVQNED | 67 | 0.52
C147 (ligand) YFGKLESKLSIIRNLNDQVLFIDQGNRPLFEDMTDSDARDNAPRTIFIISMYAASQPRGMAVTISVKCEKISTLSAENKIISFKEMNPPDNIKDTKSDIIFFQRSVPGHDNKMQFESSSYEGYFLAAEKERDLFKLILKKEDELGDRSIMFTVQNED | 79 | 1
C156 (ligand) YFGKLESKLSIIRNLNDQVLFIDQGNRPLFEDMTDSDARDAAPRTIFIISMYADSQPRGMAVTISVKCEKISTLSAENKIISFKEMNPPDNIKDTKSDIIFFQRSVPGHDNKMQFESSSYEGYFLAAEKERDLFKLILKKEDELGDRSIMFTVQNED | 558 | 11.7
C143 (ligand) YFGKLESKLSIIRNLNDQVLFIDQGNRPLFEDMTDSDARDNAPRTIFIISMYADSQPRGMAVTISVKCEKISTLSAENKIISFKEMNPPDNIKDTKSDIIFFQRSVPGHDNKMQFESSSYEGYFLAAEKERDLFKLILKKEDELGDRSIMFTVQNED | 138 | 0.98
C152 (ligand) YFGKLESKLSIIRNLNDQVLFIDQGNRPLFEDMTDADARDNAPRTIFIISMYADSQPRGMAVTISVKCEKISTLSAENKIISFKEMNPPDNIKDTKSDIIFFQRSVPGHDNKMQFESSSYEGYFLAAEKERDLFKLILKKEDELGDRSIMFTVQNED | 33 | 0.25
C153 (ligand) YFGKLESKLSIIRNLNDQVLFIDQGNRPLFEDMTDSAARDNAPRTIFIISMYADSQPRGMAVTISVKCEKISTLSAENKIISFKEMNPPDNIKDTKSDIIFFQRSVPGHDNKMQFESSSYEGYFLAAEKERDLFKLILKKEDELGDRSIMFTVQNED | 175 | 14.1
C157 (ligand) YFGKLESKLSIIRNLNDQVLFIDQGNRPLFEDMTDSDARDNAPRTIFIISMYADSQPRGMAVTISVKCEKISTLSAENKIISFKEMNPPDNIKDTKSDIIFFQRSVPGHDNKMQFESSSYEGYFLAAEKERALFKLILKKEDELGDRSIMFTVQNED | 56 | 1.95
C154 (ligand) YFGKLESKLSIIRNLNDQVLFIDQGNRPLFADMTDSAARDNAPRTIFIISMYADSQPRGMAVTISVKCEKISTLSAENKIISFKEMNPPDNIKDTKSDIIFFQRSVPGHDNKMQFESSSYEGYFLAAEKERDLFKLILKKEDELGDRSIMFTVQNED | 62 | 11.9
C148 (ligand) YAGKLESKLSIIRNLNDQVLFIDQGNRPLFEDMTDSDARDNAPRTIFIISMYADSQPRGMAVTISVKCEKISTLSAENKIISFKEMNPPDNIKDTKSDIIFFQRSVPGHDNKMQFESSSYEGYFLAAEKERDLFKLILKKEDELGDRSIMFTVQNED | 256 | 7.28
C145 (ligand) YFGKLESKLSIIRNLNDQVLFIDQGNRPLFEDMTDSDARDNAPRTIFIISMYADAQPRGMAVTISVKCEKISTLSAENKIISFKEMNPPDNIKDTKSDIIFFQRSVPGHDNKMQFESSSYEGYFLAAEKERDLFKLILKKEDELGDRSIMFTVQNED | 87 | 3.63
SEQ ID NO 59 (ligand) YFGKLKSKLSVIRNLNDQVLFIDQGNRPLFEDMTDSDARDNAPRTIFIISMYADSQPRGMAVTISVKCEKISTLSCENKIISFKEMNPPDNIKDTKSDIIFFQRSVPGHDNKMQFESSSYEGYFLACEKERDLFKLILKKEDELGDRSIMFTVQNED | 15 | 0.268
C146 (ligand) YFGKLESKLSIIRNLNDQVLFIDQGNRPLFEDMTDSDARDNAPRTIFIISGYADSQPRGMAVTISVKCEKISTLSAENKIISFKEMNPPDNIKDTKSDIIFFQRSVPGHDNKMQFESSSYEGYFLAAEKERDLFKLILKKEDELGDRSIMFTVQNED | 37 | 0.8
